Experimental data: PMC9665845

Molecular target: human Kap-β2/Transportin-1 (TNPO1), GST tag removed (human) (UniProt Q92973)
Sequence of UniProt Q92973 (Q92973 whole entry): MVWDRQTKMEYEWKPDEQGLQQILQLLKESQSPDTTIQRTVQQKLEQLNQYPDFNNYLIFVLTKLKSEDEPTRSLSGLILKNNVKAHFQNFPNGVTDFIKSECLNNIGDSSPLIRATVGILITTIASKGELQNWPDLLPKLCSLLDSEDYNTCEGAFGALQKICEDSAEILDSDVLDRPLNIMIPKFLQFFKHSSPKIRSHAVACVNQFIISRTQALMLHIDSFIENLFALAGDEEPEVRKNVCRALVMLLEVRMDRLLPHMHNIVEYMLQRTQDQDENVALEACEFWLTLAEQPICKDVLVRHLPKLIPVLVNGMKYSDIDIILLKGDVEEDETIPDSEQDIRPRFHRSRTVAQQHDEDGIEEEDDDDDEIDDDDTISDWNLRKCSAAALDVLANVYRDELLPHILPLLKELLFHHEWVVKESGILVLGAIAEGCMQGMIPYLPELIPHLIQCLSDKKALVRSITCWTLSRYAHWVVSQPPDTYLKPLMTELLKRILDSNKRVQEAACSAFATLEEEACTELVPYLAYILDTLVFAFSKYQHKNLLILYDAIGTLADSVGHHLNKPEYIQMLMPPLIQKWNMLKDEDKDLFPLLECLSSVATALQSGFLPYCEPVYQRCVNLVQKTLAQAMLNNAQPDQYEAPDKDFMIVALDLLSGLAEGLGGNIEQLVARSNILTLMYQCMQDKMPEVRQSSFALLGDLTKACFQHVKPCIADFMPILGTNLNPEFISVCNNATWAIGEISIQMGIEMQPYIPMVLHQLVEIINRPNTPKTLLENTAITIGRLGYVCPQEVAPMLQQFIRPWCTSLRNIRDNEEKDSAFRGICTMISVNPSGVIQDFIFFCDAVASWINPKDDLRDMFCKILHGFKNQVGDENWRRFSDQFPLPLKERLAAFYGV

Binder	percent reduction of TCF/LEF luciferase activity in 3T3 mouse fibroblast reporter cells activated by human β-catenin-GFP [%]	percent reduction of TCF/LEF luciferase activity in 3T3 mouse fibroblast reporter cells activated by human β-catenin-GFP; blocks TNPO1 with β-catenin [%]
GGSYNDFGNYNNQSSNAAAAKGGNFGGAFEAAANPTKR [M9M-A peptide]	24	
GGSYNDFGNYNNQSSNFGPMKGGNFGGRFEPYANPTKR [M9M peptide]		45
